One experiment has as its target T1, Rat CTGF (Rattus norvegicus, UniProt Q9R1E9).
T1 construct: purchased R&D Systems
T1 sequence (Q9R1E9 25-347): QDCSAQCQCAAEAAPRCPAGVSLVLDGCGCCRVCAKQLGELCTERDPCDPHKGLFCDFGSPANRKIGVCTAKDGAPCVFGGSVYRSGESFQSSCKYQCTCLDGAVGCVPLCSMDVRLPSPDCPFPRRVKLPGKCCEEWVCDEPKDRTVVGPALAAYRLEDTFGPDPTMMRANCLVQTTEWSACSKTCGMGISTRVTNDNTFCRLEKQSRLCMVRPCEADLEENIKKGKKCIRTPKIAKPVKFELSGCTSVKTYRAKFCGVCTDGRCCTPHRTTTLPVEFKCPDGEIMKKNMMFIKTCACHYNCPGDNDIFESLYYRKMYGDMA
In words: ELISA binding to rat CTGF (Example 9). The conditions noted are these: muteins from 1000 nM; for EC50: read-out: EC Rat CTGF.

The target of experiment [1] is T2, huCTGF domains 1 and 2 with human Fc tag (Homo sapiens, UniProt P29279).
T2 construct: purchased Evitria
T2 sequence (P29279 with tags, fused parts or gaps): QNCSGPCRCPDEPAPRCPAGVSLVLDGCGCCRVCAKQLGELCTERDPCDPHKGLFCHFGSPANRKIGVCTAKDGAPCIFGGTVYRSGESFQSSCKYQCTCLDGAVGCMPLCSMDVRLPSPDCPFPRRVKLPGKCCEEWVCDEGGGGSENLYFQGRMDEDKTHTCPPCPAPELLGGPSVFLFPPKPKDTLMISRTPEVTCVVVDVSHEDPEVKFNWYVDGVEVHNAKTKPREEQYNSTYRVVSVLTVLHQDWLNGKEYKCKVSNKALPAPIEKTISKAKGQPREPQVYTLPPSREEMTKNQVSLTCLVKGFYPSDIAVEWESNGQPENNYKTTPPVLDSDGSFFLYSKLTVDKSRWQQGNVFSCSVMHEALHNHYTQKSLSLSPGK
Nature of the experiment: ELISA binding to CTGF fragments, human CTGF domains 1 and 2. Conditions: coated 1 μg/ml, muteins from 1000 nM; for EC50: read-out: EC Human CTGF1-2-huFc. The protocol: (§1) Binding of muteins to fragments of human and murine CTGF was tested by an ELISA assay. In detail, a 384-well plate suitable for fluorescence measurements (Greiner FLUOTRAC™ 600, black flat bottom, high-binding) was coated with 20 μl of human (R&D Systems, SEQ ID NO 79) and murine CTGF (Biozol, SEQ ID NO: 80) or fragments thereof (Evitria, huCTGF domains 1 and 2 with human Fc tag (SEQ ID NO 77) and muCTGF domains 1 and 2 with human Fc tag (SEQ ID NO 78)) at a concentration of 1 μg/ml in PBS over night at 4° C. After washing with PBS with 0.05% Tween 20, wells were blocked with 100 μl blocking buffer containing 0.1% Tween 20 and 2% BSA (PBS-T/BSA) for 1 h at room temperature. 20 μl of serially diluted muteins starting at 1000 nM were incubated in PBS-T/BSA for 1 h at room temperature.
(§2) The residual supernatants were discarded and 20 μl HRP-labeled anti-Strep-Tag antibody was added at a predetermined optimal concentration in PBS-T/BSA and incubated for 1 h at RT. After washing, 20 μl fluorogenic HRP substrate (QuantaBlu, Thermo) was added to each well, and the reaction was allowed to proceed for 5 to 25 minutes. The fluorescence intensity of every well on the plate was read using a fluorescence microplate reader (Tecan). Curve fitting was performed using GraphPad Prism 7 software.
A general note: An ELISA detects its analyte on a solid surface through an enzyme-linked reagent.

A further experiment has as its target T3, human CTGF (Homo sapiens, UniProt P29279, H83D).
T3 construct: purchased R&D Systems
T3 sequence (P29279 27-349 H83D): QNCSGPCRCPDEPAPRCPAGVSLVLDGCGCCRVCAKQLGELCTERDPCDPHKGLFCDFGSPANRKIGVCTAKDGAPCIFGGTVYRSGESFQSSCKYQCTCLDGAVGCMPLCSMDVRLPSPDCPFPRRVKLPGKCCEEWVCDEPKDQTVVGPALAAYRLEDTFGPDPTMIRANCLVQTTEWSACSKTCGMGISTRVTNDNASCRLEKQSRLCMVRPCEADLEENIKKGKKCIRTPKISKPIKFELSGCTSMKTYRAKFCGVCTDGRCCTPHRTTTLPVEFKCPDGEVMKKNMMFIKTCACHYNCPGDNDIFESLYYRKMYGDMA
Nature of the experiment: ELISA binding to full-length human CTGF (Example 9). Conditions: coated 1 μg/ml, muteins from 1000 nM, read-out: EC Human CTGF. The protocol: as §1, §2

The next experiment relates to cynomolgus CTGF. In words: SPR binding kinetics and affinity, cynomolgus CTGF. More on the design: key: B binding without determination of kinetics constants. The conditions noted are these: 25° C., 1:1 binding model. The protocol:
Surface plasmon resonance (SPR) was used to measure binding kinetics and affinity of the representative lipocalin muteins disclosed herein.
The binding of exemplary lipocalin muteins to human (Creative Biomart), cynomolgus, rat (R&D Systems) and mouse CTGF (Abbexa) was determined by SPR using a Biacore instrument (Cytiva, formerly GE Healthcare). Some targets were fused to a human IgG1 Fc tag, and captured via the anti-human IgG antibody kit, others were directly immobilized.
For some measurements, human CTGF with a human IgG1 Fc Tag or rat or murine CTGF without a tag were directly immobilized to a CM5 Chip. The carboxyl groups on the chip were activated using 1-ethyl-3-(3-dimethylaminopropyl)-carbodiimide (EDC) and N-hydroxysuccinimide (NHS). Subsequently, the targets at a concentration of 3-5 μg/mL in 10 mM sodium acetate (pH) 4.5 were applied at a flow rate of 10 μL/min until an immobilization level of 300-1100 resonance units was achieved. Residual non-reacted NHS-esters were blocked by passing a solution of 1 M ethanolamine across the surface. The reference channel was activated/deactivated. For the capture setting, targets with an IgG Fc Tag at 0.25-2.5 μg/mL in HBS-EP+ buffer were captured by the anti-human IgG-Fc antibody at the chip surface for 180 s at a flow rate of 10 μL/min.
The binding assay was carried out with a contact time of 180 s, a dissociation time of 900-3600 s and a flow rate of 30 μL/min. All measurements were performed at 25° C. […] For the directly immobilized targets, the same regeneration conditions were used. Prior to the protein measurements, three startup cycles were performed for conditioning purposes. Data were evaluated with Biacore Evaluation software. Double referencing was used and the 1:1 binding model was used to fit the raw data.
The values determined for kon, koff and the resulting equilibrium dissociation constant (KD) for exemplary lipocalin muteins are summarized in Table 4.
On the technique in general: In SPR one partner is held on a chip, and binding of the other changes the refractive index at the surface.

Experiment [2] relates to TGF-β1-stimulated normal human lung fibroblasts (NHLFs). Nature of the experiment: Binding to activated human lung fibroblasts. The class given is cell-based. The conditions noted are these: 24 h incubation with 10 ng/ml TGF-β1; immunofluorescence of lipocalin scaffold. The protocol:
Binding of the CTGF-targeting lipocalin muteins and fusion proteins disclosed herein to CTGF-expressing, TGF-β1-stimulated normal human lung fibroblasts (NHLFs) was tested by incubating NHLFs for 24 h with constructs and 10 ng/ml TGF-β1, which induces CTGF expression. NHLFs without TGF-β1 stimulation were included as negative control. Constructs were detected with a secondary antibody against the lipocalin scaffold coupled to AlexaFluor647 after NHLFs were fixed in 4% PFA and blocked with 5% BSA. Images were acquired on the Cytation5 Reader (Biotek). Signals were quantified in Gene5 software and normalized to the respective controls. For the experiments, cells were grown under conditions that facilitate pseudo-3D extracellular matrix deposition as described by Good et al. (Good et al., BMC Biomed Eng, 1:14 (2019)).
Representative data are shown in FIG. 4 and illustrate the ability of the CTGF-targeting lipocalin muteins and fusion proteins disclosed herein to bind to activated human lung fibroblasts expressing CTGF in a concentration-dependent manner.

Numbering of substitutions follows the chain as printed.

Chain of cynomolgus CTGF (as listed by the source): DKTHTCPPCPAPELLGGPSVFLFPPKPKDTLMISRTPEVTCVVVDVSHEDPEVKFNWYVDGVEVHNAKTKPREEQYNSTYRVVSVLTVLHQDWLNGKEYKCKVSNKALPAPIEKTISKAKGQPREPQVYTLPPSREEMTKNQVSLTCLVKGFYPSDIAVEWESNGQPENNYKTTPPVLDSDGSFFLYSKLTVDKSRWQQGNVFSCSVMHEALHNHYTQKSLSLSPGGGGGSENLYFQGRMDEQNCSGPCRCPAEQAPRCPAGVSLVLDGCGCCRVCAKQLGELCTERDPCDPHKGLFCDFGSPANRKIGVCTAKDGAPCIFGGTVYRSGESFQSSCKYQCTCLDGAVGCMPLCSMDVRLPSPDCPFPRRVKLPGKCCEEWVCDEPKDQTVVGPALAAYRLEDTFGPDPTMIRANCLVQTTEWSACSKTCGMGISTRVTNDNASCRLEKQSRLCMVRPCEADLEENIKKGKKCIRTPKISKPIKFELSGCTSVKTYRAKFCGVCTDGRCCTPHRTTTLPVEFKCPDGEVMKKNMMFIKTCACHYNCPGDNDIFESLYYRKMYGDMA

B1: SEQ ID NO: 3: parent CTGF-binding hNGAL lipocalin mutein (protein)
chain: QDSTSDLIPAPPLSKVPLQQNFQDNQFHGKWYVVGRAGNNRLREDKDPPKMWATIYELKEDKSYNVTHVHFMTKKCRYIIDTFVPGSQPGEFTLGAIKSGPGMTSPLVRIVSTNYNQHAMVFFKWVNQNREWFTITLYGRTKELTSELKENFIRFSKSLGLPENHIVFPVPIDQCIDG
modifications: lipocalin mutein
Turning to B1, in the experiment with Rat CTGF, the “EC Rat CTGF” value is on record as “weak”. In addition, the “EC Human CTGF1-2-huFc” value in experiment [1] is “n.b”. The EC50 with human CTGF was 6.9 nM.

B2: SEQ ID NO: 23: optimized CTGF-binding hNGAL lipocalin mutein (protein)
chain: QDSTSDLIPAPPLSKVPLQQNFQDNQFQGKWYVVGVAGNAILRPDKQPAKMFATIYELKEDKSYDVTSVRFEAKSCKYTIKTFVPGSQPGEFTSGQIKSAPGQTSTLVRVVSTNYNQHAMVFFKHVSQNREIFVITLYGRTKELTSELKENFIRFSKSLGLPENHIVFPVPIDQCIDG
modifications: lipocalin mutein
B2: in the experiment on cynomolgus CTGF, the “cynomolgus CTGF KD” value is recorded as “B”, the “cynomolgus CTGF koff” value was “B” and the “cynomolgus CTGF kon” value is reported as “B”. Moreover, the “Binding to TGFβ-activated NHLFs” value in experiment [2] is given as “binding”.

B3: SEQ ID NO: 9: parent CTGF-binding hNGAL lipocalin mutein (protein)
chain: B2 chain with Q28H, V36L, A40K, P44I, K74R, K77S, S94A, Q96N, I132T
modifications: lipocalin mutein
Take B3: the values for the EC50 (with Rat CTGF; in experiment [1]; in the experiment with human CTGF) were 30 nM, 8 nM and 14 nM, respectively.

B4: SEQ ID NO: 15: optimized CTGF-binding hNGAL lipocalin mutein (protein)
chain: B2 chain with V36L, P44E, S94A, Q96Y, S127T
modifications: lipocalin mutein
B4: in the experiment with cynomolgus CTGF, the “cynomolgus CTGF koff” value came out at 7.57e-05 s⁻¹ and the “cynomolgus CTGF kon” value turned out to be 107000 M⁻¹ s⁻¹.

B5: SEQ ID NO: 74: fusion protein comprising two CTGF-binding lipocalin muteins (protein)
chain: QDSTSDLIPAPPLSKVPLQQNFQDNQFQGKWYVVGLAGNAILREDKQPAKMFATIYELKEDKSYDVTSVRFEAKSCKYTIKTFVPGSQPGEFTAGYIKSAPGQTSTLVRVVSTNYNQHAMVFFKHVTQNREIFVITLYGRTKELTSELKENFIRFSKSLGLPENHIVFPVPIDQCIDGGGGGSGGGGSGGGGSQDSTSDLIPAPPLSKVPLQQNFQDNQFQGKWYVVGWAGNVKLREDKQPQKMSATIYELKEDKSYDVTEVVFEQKKCHYIIKTFVPGSQPGEFTAGDIKSPPGYTSSLVRVVSTNYNQHAMVFFKKVSQNREFFWITLYGRTKELTSELKENFIRFSKSLGLPENHIVFPVPIDQCIDG
modifications: fusion protein
On to B5, for which, in experiment [2], the “Binding to TGFβ-activated NHLFs” value is “binding”.

B6: SEQ ID NO: 7: parent CTGF-binding hNGAL lipocalin mutein (protein)
chain: QDSTSDLIPAPPLSKVPLQQNFQDNQFHGKWYVVGLAGNYGLRTDKRPSKMFATIYELKEDKSYDVTSVRFEQERCHYTIRTFVPGSQPGEFTTGSIKSRPGQTSSLVRVVSTNYNQHAMVFFKSVIQNREYFAITLYGRTKELTSELKENFIRFSKSLGLPENHIVFPVPIDQCIDG
modifications: lipocalin mutein
For the molecule B6, the EC50 with Rat CTGF amounted to 41 nM; in experiment [1] it was 17 nM; with human CTGF, 34 nM.

B7: SEQ ID NO: 25: parent CTGF-binding hNGAL lipocalin mutein (protein)
chain: QDSTSDLIPAPPLSKVPLQQNFQDNQFHGKWYVVGMAGNFRLREDKDPSKMGATIYELKEDKSYNVTQVQFDDKKCLYVIETFVPGSQPGEFTLGAIKSFPGFTSQLVRVVSTNYNQHAMVFFKKVYQNREVFWITLYGRTKELTSELKENFIRFSKSLGLPENHIVFPVPIDQCIDG
modifications: lipocalin mutein
On to B7, for which the figures for the EC50 (with Rat CTGF; in experiment [1]; in the experiment with human CTGF) were 23 nM, 8.8 nM and 11 nM, respectively.

B8: SEQ ID NO: 29: parent CTGF-binding hNGAL lipocalin mutein (protein)
chain: QDSTSDLIPAPPLSKVPLQQNFQDNQFHGKWYVVGWAGNIKLREDKDPFKMSATIYELKEDKSYNVTEVVFEQKKCHYIIKTFVPGSQPGEFTLGDIKSPPGETSSLVRVVSTNYNQHAMVFFKKVFQNREFFWITLYGRTKELTSELKENFIRFSKSLGLPENHIVFPVPIDQCIDG
modifications: lipocalin mutein
B8: the EC50 in the experiment with Rat CTGF stood at 20 nM; in experiment [1], 8.4 nM; with human CTGF, 11 nM.

The values above are taken from patent US20240228562A1, “NOVEL LIPOCALIN MUTEINS SPECIFIC FOR CONNECTIVE TISSUE GROWTH FACTOR (CTGF)” (PIERIS PHARMACEUTICALS GMBH, priority 2021, published 2024).
